The test system of the test is Bacillus subtilis PY79. The test can be described thus: Haloduracin agar spot assay on indicator strain. The test is classed as cell-based. The conditions noted are these: 5 μL of cleaved, desalted core peptide in 1:1 methanol:water on LB-agar. The method, then: To assay for antimicrobial activity, the cleaved and desalted core peptides were resuspended in 50 μL 1:1 methanol:water. Bacillus subtilis PY79 was used as indicator strain and was spread on a LB-agar surface, on which 5 μL of either or both haloduracins or a solvent control was added.

B1: haloduracin A2 (peptide)
chain: MVNSKDLRNPEFRKAQGLQFVDEVNEKELSSLAGSENLYFQGTTWPCATVGVSVALCPTTKCTSQC
Regarding B1, the “antibacterial activity, growth inhibition on agar” value is “minimal antibacterial activity”.

B2: haloduracin A1 (peptide)
chain: MTNLLKEWKMPLERTHNNSNPAGDIFQELEDQDILAGVNGAENLYFQGCAWYNISCRLGNKGAYCTLTVECMPSCN
B2: the “antibacterial activity, growth inhibition on agar” value was “minimal antibacterial activity”.
